4 molecules from patent US20210054043A1 (HADASIT MEDICAL RESEARCH SERVICES AND DEVELOPMENT, published 2021) can be followed below.

T1: isolated ectodomain of SLAMF1 containing a 6-histidine tag (seSLAMF1) (UniProt Q13291 21-237, limits assumed)
T1 construct: extracellular domain; not shown: 6-histidine tag
T1 sequence (looked up): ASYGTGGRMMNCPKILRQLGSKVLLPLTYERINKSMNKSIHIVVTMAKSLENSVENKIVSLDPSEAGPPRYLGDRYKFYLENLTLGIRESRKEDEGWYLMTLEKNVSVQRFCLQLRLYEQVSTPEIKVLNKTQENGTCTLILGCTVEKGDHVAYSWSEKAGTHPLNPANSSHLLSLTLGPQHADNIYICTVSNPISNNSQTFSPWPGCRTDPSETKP

B1: isolated ectodomain of SLAMF6^var1 containing a 6-histidine tag (Prospec, seSLAMF6) (receptor)
chain: QSSLTPLMVNGILGESVTLPLEFPAGEKVNFITWLFNETSLAFIVPHETKSPEIHVTNPKQGKRLNFTQSYSLQLSNLKMEDTGSYRAQISTKTSAKLSSYTLRILRQLRNIQVTNHSQLFQNMTCELHLTCSVEDADDNVSFRWEALGNTLSSQPNLTVSWDPRISSEQDYTCIAENAVSNLSFSVSAQKLCEDVKIQYTDTKM
notes: Bought reagent; Only the ectodomain stood in the assay; also called isolated SLAMF6^var1 ectodomain; not shown: 6-histidine tag
B2: Fc-fused ectodomain of SLAMF6^var1 (seSLAMF6_Fc, Creative Biomart) (Fc fusion)
chain: B1 chain
notes: Bought reagent, coated on the plate at 1 ug/ml; Only the ectodomain stood in the assay; also called full length seSLAMF6-Fc; SLAMF6^var1 ectodomain (Fc-conjugated); not shown: Fc portion
B3: isolated ectodomain of SLAMF7 containing a 6-histidine tag (seSLAMF7) (receptor, UniProt Q9NQ25 23-226, looked up)
chain: SGPVKELVGSVGGAVTFPLKSKVKQVDSIVWTFNTTPLVTIQPEGGTIIVTQNRNRERVDFPDGGYSLKLSKLKKNDSGIYYVGIYSSSLQQPSTQEYVLHVYEHLSKPKVTMGLQSNKNGTCVTNLTCCMEHGEEDVIYTWKALGQAANESHNGSILPISWRWGESDMTFICVARNPVSRNFSSPILARKLCEGAADDPDSSM
notes: extracellular domain; not shown: 6-histidine tag
B4: isolated SLAMF6^var3 ectodomain (seSLAMF6^var3), human, C-terminal 6-histidine tag (receptor)
chain: GNVVSVPHETKSPEIHVTNPKQGKRLNFTQSYSLQLSNLKMEDTGSYRAQISTKTSAKLSSYTLRILRQLRNIQVTNHSQLFQNMTCELHLTCSVEDADDNVSFRWEALGNTLSSQPNLTVSWDPRISSEQDYTCIAENAVSNLSFSVSAQKLCEDVKIQYTDTKMGSHHHHHH
notes: Expressed in HEK293 cells and purified on a Ni column (Novoprotein/BonOpus); The N-terminus is heterogeneous; also called seSLAMF6-V3; soluble ectodomain of SLAMF6^var3

Common to all, as to experiment: ELISA, seSLAMF6-Fc coated on the plate, anti-His-HRP detection
The target of test [1] is B2. As for the experimental part: (§1) FIG. 11. seSLAMF6-V3 binding to full length seSLAMF6-Fc using ELISA. seSLAMF6-Fc was pre-coated to MaxiSorb plate. Soluble ectodomains from various SLAM family members (seSLAMF6, seSLAMF6-V3, seSLAMF1, seSLAMF7 and seSLAMF8, all containing 6-Histidine tags) were then added. An anti- Histidine antibody was used for detection.
(§2) MaxiSorb plates were pre-coated overnight with an Fc-fused ectodomain of SLAMF6^var1 (seSLAMF6_Fc, Creative Biomart, at 1 μg/ml and 4° C.). On the next day, the plate was washed and blocked using blocking buffer containing 1% BSA in PBSX1. Next, the plate was incubated for two hours with different concentrations of isolated ectodomains (containing 6-histidine tags) from SLAMF6^var1 (Prospec, seSLAMF6) or SLAMF6^var3 (Novoprotein/Bonopus, seSLAMF6-V3), or from SLAMF1, SLAMF7 or SLAMF8 (seSLAMF1, seSLAMF7 and seSLAMF8, respectively). The amount of receptor-bound ectodomain polypeptides was detected using horseradish peroxidase (HRP)-conjugated antibodies directed to the histidine tag (anti-HIS Abs) and quantified using an ELISA reader.

For test [2], the target named is T2, isolated ectodomain of SLAMF8 containing a 6-histidine tag (seSLAMF8) (UniProt Q9P0V8 23-233, limits assumed).
T2 construct: extracellular domain; not shown: 6-histidine tag
T2 sequence (Q9P0V8 23-233 limits assumed): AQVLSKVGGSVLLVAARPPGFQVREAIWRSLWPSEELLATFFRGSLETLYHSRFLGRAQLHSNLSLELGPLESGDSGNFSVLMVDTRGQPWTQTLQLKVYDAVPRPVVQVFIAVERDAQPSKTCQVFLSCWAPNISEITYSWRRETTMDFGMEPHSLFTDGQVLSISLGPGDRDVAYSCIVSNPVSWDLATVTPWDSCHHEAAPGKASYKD
As for the experimental part: as §1, §2

Test [3] deals with T1, isolated ectodomain of SLAMF1 …. As for the experimental part: as §1, §2

On to B1, for which, in test [1], the binding result is recorded as “binds”. For B2, the binding result in test [2] and in test [3] was “no binding” throughout. For B3, the binding result in test [1] was “no binding”. Same read-out and setting: then B4, with “binds”.
